Among the data in patent US20230012273A1 (Boehringer Ingelheim, published 2023) are Kd, koff and kon values, retold here.

In assay [1] the target is T1, Human SIRPαV1 (NP_542970.1), Extracellular Domain + His-Tag (human, UniProt P78324 31-373).
T1 construct: also called huSIRPαV1; hSIRPαV1; not shown: His-Tag
Put plainly: SPR, antibody captured on Protein A/G, ECD-His analyte, 1:1 fit. An outline of the steps: (§1)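 Biacore 8K+ at HBS-EP+, with antibodies (~1 ug/ml) captured on Protein A/G CM5 surface to ~240 RU. SIRPα ECD-His analyte dilutions injected at 30 μl/min for 300 s association, 600 s dissociation.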
On the technique in general: SPR reads the build-up and loss of mass on a sensor chip optically.

Assay [2] deals with T2, Human SIRPαV2 (CAA71403.1), Extracellular Domain + His-Tag (human, UniProt P78324 31-373).
T2 construct: also called huSIRPαV2; hSIRPαV2; not shown: His-Tag
T2 sequence (P78324 other isoform, or with tags, fused parts or gaps): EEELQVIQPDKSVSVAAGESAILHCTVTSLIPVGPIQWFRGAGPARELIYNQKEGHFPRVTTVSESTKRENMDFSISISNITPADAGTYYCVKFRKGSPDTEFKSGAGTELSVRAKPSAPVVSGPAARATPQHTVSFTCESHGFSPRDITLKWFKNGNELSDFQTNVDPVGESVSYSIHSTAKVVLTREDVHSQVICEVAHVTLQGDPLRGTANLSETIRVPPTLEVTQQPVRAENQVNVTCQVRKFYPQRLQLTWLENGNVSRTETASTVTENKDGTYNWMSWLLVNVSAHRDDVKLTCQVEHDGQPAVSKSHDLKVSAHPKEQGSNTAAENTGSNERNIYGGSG
Described as above. An outline of the steps: as §1

The target in assay [3] is T3, cynoSIRPα (NP_001271679), Extracellular Domain + His-Tag (cynomolgus monkey).
T3 construct: also called CySIRPα NP_001271679; not shown: His-Tag
T3 chain: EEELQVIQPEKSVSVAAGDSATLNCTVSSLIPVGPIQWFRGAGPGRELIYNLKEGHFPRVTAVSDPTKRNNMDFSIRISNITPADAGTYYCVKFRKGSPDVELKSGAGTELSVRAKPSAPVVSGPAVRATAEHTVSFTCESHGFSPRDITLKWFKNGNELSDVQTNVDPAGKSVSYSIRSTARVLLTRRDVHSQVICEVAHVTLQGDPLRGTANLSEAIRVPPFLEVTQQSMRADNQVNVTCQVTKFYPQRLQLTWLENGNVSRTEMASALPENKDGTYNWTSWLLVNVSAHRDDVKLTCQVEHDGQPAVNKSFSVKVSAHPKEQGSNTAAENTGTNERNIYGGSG
The assay is described as follows: SPR, antibody captured on Protein A/G, ECD-His analyte, steady-state fit. On the procedure: (§2) The binding kinetics of anti-SIRPα antibodies to various SIRPα analytes are determined by surface plasmon resonance (SPR) using a Biacore 8K+(Cytiva). 1×HBS-EP+(Cytiva) is used as running buffer and for all the dilutions unless stated otherwise. The Series S CM5 sensorchip is activated with a 1:1 mixture of 0.1 M NHS (N-hydroxysuccinimide) and 0.4 M EDC (1-Ethyl-3-(3-dimethylaminopropyl) carbodiimide hydrochloride) for 420 seconds at a flow rate of 10 μl/min and immobilized with Protein A/G (Thermo Scientific, 10 μg/ml in 10 mM acetate pH 4.5) for 420 seconds at a flowrate of 10 μl/min resulting in approximately 3000 RU of Protein A/G on the surface. The sensorchip is then deactivated with 1 M ethanolamine HCl pH 8.5 for 420 seconds at a flowrate of 10 μl/min.
(§3) Antibodies (approximately 1 ug/ml) are captured on the Protein A/G surface for 60 seconds at a flowrate of 10 μl/min resulting in capture levels of approximately 240 RU. Dilutions of each SIRP protein (Extracellular Domain+His-Tag, with the concentrations as indicated) are injected as analytes over the captured antibody for 300 seconds of association at a flowrate of 30 μl/min, followed by a dissociation for 600 seconds.
(§4) The above procedures are used to measure binding properties of antibodies of the present disclosure. For each analyte used, the highest concentration was as indicated in Example 3 (see Table 36).

For assay [4], the target named is T4, cynoSIRPα (EGM_02252), Extracellular Domain + His-Tag (cynomolgus monkey).
T4 construct: also called CySIRPα EGM_02252; not shown: His-Tag
T4 chain: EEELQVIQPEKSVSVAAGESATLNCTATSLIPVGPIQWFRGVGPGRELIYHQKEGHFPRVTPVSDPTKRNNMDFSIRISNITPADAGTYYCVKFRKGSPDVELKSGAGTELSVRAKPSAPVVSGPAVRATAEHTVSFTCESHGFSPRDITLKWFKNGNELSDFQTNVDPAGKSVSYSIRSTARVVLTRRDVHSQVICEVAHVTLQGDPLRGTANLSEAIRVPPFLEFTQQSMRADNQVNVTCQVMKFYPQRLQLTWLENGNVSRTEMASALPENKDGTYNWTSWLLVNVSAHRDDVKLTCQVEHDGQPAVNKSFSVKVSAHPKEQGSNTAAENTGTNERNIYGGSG
The description is as above. On the procedure: as §2, §3, §4

The target of assay [5] is T5, cynoSIRPα (XP_015313155), Extracellular Domain + His-Tag (cynomolgus monkey).
T5 construct: also called CySIRPα XP_015313155; not shown: His-Tag
T5 chain: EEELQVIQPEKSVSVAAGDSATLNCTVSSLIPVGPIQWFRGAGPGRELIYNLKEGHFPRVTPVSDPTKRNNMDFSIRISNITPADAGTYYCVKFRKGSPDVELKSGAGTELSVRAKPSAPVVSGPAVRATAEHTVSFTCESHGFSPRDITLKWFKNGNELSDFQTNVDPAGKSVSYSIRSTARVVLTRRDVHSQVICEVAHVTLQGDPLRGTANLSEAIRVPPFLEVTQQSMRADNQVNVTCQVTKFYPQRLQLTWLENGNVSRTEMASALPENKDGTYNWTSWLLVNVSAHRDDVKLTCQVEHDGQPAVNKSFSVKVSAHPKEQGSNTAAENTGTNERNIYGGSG
The assay is described as above. On the procedure: as §2, §3, §4

T1 sequence (P78324 other isoform, or with tags, fused parts or gaps): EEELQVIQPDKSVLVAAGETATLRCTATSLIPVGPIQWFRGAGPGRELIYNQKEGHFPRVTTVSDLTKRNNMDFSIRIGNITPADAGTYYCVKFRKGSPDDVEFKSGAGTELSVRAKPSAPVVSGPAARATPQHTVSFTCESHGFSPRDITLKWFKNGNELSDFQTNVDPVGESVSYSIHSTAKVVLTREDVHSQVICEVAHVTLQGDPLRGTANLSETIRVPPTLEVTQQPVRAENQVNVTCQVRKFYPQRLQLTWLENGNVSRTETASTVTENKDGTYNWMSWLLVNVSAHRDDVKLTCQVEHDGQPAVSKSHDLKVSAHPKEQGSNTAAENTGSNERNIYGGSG

B1: Antibody A1 (antibody, human IgG1, kappa, L234A L235A, V domains shown)
VH: EVQLVESGGGLVQPGGSLRLSCAASGFTLSSYDMHWVRQAPGKGLEWVSAIGTAGDTYYTGSVKGRFTISRENAKNSLYLQMNSLRADDTAVYYCVRGGVWDDAFDIWGQGTMVTVSS
VL: DIQMTQSPSSLSASVGDRVTITCRASQGINNYAAWFQQKPGKAPKSLIYTASSLHSGVPSKFSGSGSGTDFTLTISSLQPEDFATYYCQQYVSYPYTFGQGTKLEIKR
With B1, the dissociation constant Kd (as a rule, the constant that tells how readily two partners part at equilibrium) in assay [1] stood at 8.6 nM; in assay [2] it was 18.6 nM; in assay [3] it was 780 nM; in assay [4], 523 nM; in assay [5], 427 nM. In addition, the koff – broadly, a measure of how fast the partners let go of each other – came to 0.00625 s⁻¹ in assay [1] and 0.0162 s⁻¹ in assay [2]. In addition, the kon (in general, the second-order rate constant of association) in assay [1] is 727000 M⁻¹ s⁻¹; in assay [2], 869000 M⁻¹ s⁻¹.

B2: Antibody A2 (antibody, human IgG1, kappa, L234A L235A, V domains shown)
VH: EVQLVESGGGLVQPGGSLRLSCAASGFTLSSYDMHWVRQATGKGLEWVSAIGTAGDTYYTGSVKGRFTISRENAKNSLYLQMNSLRAADTAVYYCVRGGVWDDAFDIWGQGTMVTVSS
VL: DIQMTQSPSSLSASVGDRVTITCRASQGINNYAAWFQQKPGKAPKSLIYTASSLHSGVPSKFSGSGSGTDFTLTISSLQPEDFATYYCQQYVSYPYTFGQGTKLEIKR
B2: the Kd in assay [1] is 9.39 nM; in assay [2], 20.9 nM; in assay [3], 887 nM; in assay [4], 556 nM; in assay [5], 469 nM. In addition, the koff in assay [1] stood at 0.00685 s⁻¹; in assay [2] it was 0.0184 s⁻¹. Further, the figures for the kon in assay [1] and in assay [2] were 729000 M⁻¹ s⁻¹ and 883000 M⁻¹ s⁻¹, respectively.

B3: Antibody A7 (antibody, human IgG1, kappa, L234A L235A, V domains shown)
VH: EVQLVESGGGLVQPGGSLRLSCAASGFTLSSYDMHWVRQATGKGLEWVSAIGTAGDTYYTGSVKGRFTISRENAKNSLYLQMNSLRAGDTAVYYCVRGGVWDDAFDIWGQGTMVTVSS
VL: DIQMTQSPSSLSASVGDRVTITCRASQGINNYAAWFQQKPGKAPKSLIYTASSLHSGVPSKFSGSGSGTDFTLTISSLQPEDFATYYCQQYVSYPYTFGQGTKLEIKR
In the case of B3, the Kd in assay [1] is 9.38 nM; in assay [2], 20.4 nM; in assay [3], 741 nM; in assay [4], 588 nM; in assay [5] it was 466 nM. In addition, the koff in assay [1] stood at 0.00672 s⁻¹; in assay [2], 0.019 s⁻¹. Also, the values for the kon in assay [1] and in assay [2] were 716000 M⁻¹ s⁻¹ and 933000 M⁻¹ s⁻¹, respectively.

B4: Antibody A3 (antibody, human IgG1, kappa, L234A L235A, V domains shown)
VH: EVQLVESGGGLVQPGGSLRLSCAASGFTLSSYDMHWVRQATGKGLEWVSAIGTAGDTYYTGSVKGRFTISRENAKNSLYLQMNSLRASDTAVYYCVRGGVWDDAFDIWGQGTMVTVSS
VL: DIQMTQSPSSLSASVGDRVTITCRASQGINNYAAWFQQKPGKAPKSLIYTASSLHSGVPSKFSGSGSGTDFTLTISSLQPEDFATYYCQQYVSYPYTFGQGTKLEIKR
As for B4, the Kd in assay [1] turned out to be 9.06 nM; in assay [2] it was 19.6 nM; in assay [3], 857 nM; in assay [4], 560 nM; in assay [5] it was 480 nM. The figures for the koff in assay [1] and in assay [2] were 0.00661 s⁻¹ and 0.0178 s⁻¹, respectively. Further, the kon in assay [1] was determined as 730000 M⁻¹ s⁻¹; in assay [2] it was 907000 M⁻¹ s⁻¹.

B5: Antibody A6 (antibody, human IgG1, kappa, L234A L235A, V domains shown)
VH: EVQLVESGGGLVQPGGSLRLSCAASGFTLSSYDMHWVRQAPGKGLEWVSAIGTAGDTYYTGSVKGRFTISRENAKNSLYLQMNSLRAEDTAVYYCVRGGVWDDAFDIWGQGTMVTVSS
VL: DIQMTQSPSSLSASVGDRVTITCRASQGINNYAAWFQQKPGKAPKSLIYTASSLHSGVPSKFSGSGSGTDFTLTISSLQPEDFATYYCQQYVSYPYTFGQGTKLEIKR
With B5, the dissociation constant (Kd) in assay [1] was determined as 8.28 nM; in assay [2], 18.1 nM; in assay [3] it was 684 nM; in assay [4], 521 nM; in assay [5], 420 nM. Also, the values for the koff in assay [1] and in assay [2] were 0.00634 s⁻¹ and 0.0171 s⁻¹, respectively. Further, the kon in assay [1] was found to be 766000 M⁻¹ s⁻¹; in assay [2], 947000 M⁻¹ s⁻¹.

B6: Antibody A10 (antibody, human IgG1, kappa, L234A L235A)
heavy: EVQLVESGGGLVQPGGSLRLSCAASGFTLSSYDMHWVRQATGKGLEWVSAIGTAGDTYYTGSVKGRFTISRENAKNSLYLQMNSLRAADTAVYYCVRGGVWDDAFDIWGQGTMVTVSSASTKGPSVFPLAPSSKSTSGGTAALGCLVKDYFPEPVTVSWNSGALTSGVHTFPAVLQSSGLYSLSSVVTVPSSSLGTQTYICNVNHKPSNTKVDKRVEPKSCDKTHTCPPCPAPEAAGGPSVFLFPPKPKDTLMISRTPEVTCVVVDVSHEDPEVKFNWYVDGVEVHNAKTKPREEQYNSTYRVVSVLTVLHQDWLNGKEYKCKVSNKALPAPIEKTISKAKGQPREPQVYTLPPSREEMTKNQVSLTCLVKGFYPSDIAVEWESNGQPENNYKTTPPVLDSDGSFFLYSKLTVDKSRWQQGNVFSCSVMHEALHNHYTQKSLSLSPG
light: DIQMTQSPSSLSASVGDRVTITCRASQDINNYLAWFQQKPGKAPKSLIYTASSLHSGVPSKFSGSGSGTDFTLTISSLQPEDFATYYCQQYVSYPYTFGQGTKLEIKRTVAAPSVFIFPPSDEQLKSGTASVVCLLNNFYPREAKVQWKVDNALQSGNSQESVTEQDSKDSTYSLSSTLTLSKADYEKHKVYACEVTHQGLSSPVTKSFNRGEC
Regarding B6, the Kd in assay [3] is 388 nM; in assay [4] it was 282 nM; in assay [5], 203 nM.

B7: Antibody A4 (antibody, human IgG1, kappa, L234A L235A, V domains shown)
VH: EVQLVESGGGLVQPGGSLRLSCAASGFTLSSYDMHWVRQAPGKGLEWVSAIGTAGDTYYTGSVKGRFTISRENAKNSLYLQMNSLRAADTAVYYCVRGGVWDDAFDIWGQGTMVTVSS
VL: DIQMTQSPSSLSASVGDRVTITCRASQGINNYAAWFQQKPGKAPKSLIYTASSLHSGVPSKFSGSGSGTDFTLTISSLQPEDFATYYCQQYVSYPYTFGQGTKLEIKR
With B7, the figures for the Kd in assay [3], in assay [4] and in assay [5] were 669 nM, 488 nM and 420 nM, respectively.

B8: Antibody A5 (antibody, human IgG1, kappa, L234A L235A, V domains shown)
VH: EVQLVESGGGLVQPGGSLRLSCAASGFTLSSYDMHWVRQAPGKGLEWVSAIGTAGDTYYTGSVKGRFTISRENAKNSLYLQMNSLRASDTAVYYCVRGGVWDDAFDIWGQGTMVTVSS
VL: DIQMTQSPSSLSASVGDRVTITCRASQGINNYAAWFQQKPGKAPKSLIYTASSLHSGVPSKFSGSGSGTDFTLTISSLQPEDFATYYCQQYVSYPYTFGQGTKLEIKR
As to B8, the Kd in assay [1] amounted to 8.75 nM; in assay [2], 17.8 nM; in assay [3] it was 665 nM; in assay [4] it was 517 nM; in assay [5] it was 415 nM. For the same molecule, the koff in assay [1] was found to be 0.00598 s⁻¹; in assay [2], 0.0162 s⁻¹. The kon was 684000 M⁻¹ s⁻¹ in assay [1] and 909000 M⁻¹ s⁻¹ in assay [2].

B9: Antibody A11 (antibody, human IgG4 S228P, kappa)
heavy: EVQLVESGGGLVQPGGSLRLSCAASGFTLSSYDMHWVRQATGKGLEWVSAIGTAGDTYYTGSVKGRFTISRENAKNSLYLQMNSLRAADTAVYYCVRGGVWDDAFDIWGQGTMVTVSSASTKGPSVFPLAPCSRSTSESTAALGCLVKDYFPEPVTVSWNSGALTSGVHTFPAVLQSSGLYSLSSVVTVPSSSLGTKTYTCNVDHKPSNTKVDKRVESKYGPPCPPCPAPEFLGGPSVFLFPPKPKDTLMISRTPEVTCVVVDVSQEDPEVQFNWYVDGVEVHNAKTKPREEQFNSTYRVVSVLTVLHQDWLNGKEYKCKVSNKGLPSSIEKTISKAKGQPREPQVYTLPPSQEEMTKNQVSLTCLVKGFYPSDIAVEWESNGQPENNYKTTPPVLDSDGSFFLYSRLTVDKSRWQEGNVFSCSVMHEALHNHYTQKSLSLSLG
light: DIQMTQSPSSLSASVGDRVTITCRASQDINNYLAWFQQKPGKAPKSLIYTASSLHSGVPSKFSGSGSGTDFTLTISSLQPEDFATYYCQQYVSYPYTFGQGTKLEIKRTVAAPSVFIFPPSDEQLKSGTASVVCLLNNFYPREAKVQWKVDNALQSGNSQESVTEQDSKDSTYSLSSTLTLSKADYEKHKVYACEVTHQGLSSPVTKSFNRGEC
On to B9, for which the Kd in assay [3] stood at 410 nM; in assay [4], 298 nM; in assay [5] it was 204 nM.
